Bridge positions count the residues as written; N and C are the ends. Ends that are not written are not given here.

From patent US8623997B2, “Variant Hhip1 protein and methods and uses thereof” (Curis, Inc., priority 2008, dated 2014) come the findings set out here.

Experiment [1] concerns the target T1, Shh-Flag (Homo sapiens, UniProt Q15465).
T1 construct: Shh-Flag (residues 25-197 with C-terminal Flag-Tag); His6 (N); made in house; host or cells: Shh-Flag: E. coli Rosetta 2; Hhip: Tni insect cells
Briefly: Peptide competition ELISA for Hhip binding to Shh-Flag. As to the method: In a competition assay, a peptide derived from the Hhip1β12 L2 loop competed with Hipβ1 for Shh binding. Briefly, 96-well Nunc-Immuno MaxiSorp plates (Nalge Nunc International) were coated with 100 μl of anti-Flag M2 antibody (Sigma) at 5 μg/ml in 50 mM sodium carbonate buffer pH 9.6 at 4° C. overnight. Plates were blocked and washed as described for Shh competition ELISA followed by incubation with 100 μL of Shh-Flag at 50 μg/ml for 1 h. After plate washing a serial dilution of Hip-L2 peptide ([…]) (SEQ ID NO:46) starting at 1.2 mM (1:3 dilution) containing 800 nM Hhip1β12 in a final volume of 100 μL was added to the wells to compete for binding to Shh-Flag. After incubation for 1 hr, wells were washed and incubated with anti-His-HRP conjugate (Qiagen, 1:2000 dilution) in blocking buffer. Plate was developed and the data were fit to a 4-parameter equation and the IC50 calculated as described above; assays were carried out in triplicate.
For orientation: In an ELISA, binding on a coated surface is turned into a signal by an enzyme label.

Experiment [2] has as its target T2, Shh (Homo sapiens, UniProt Q15465).
T2 construct: yielding Shh (residues 29-197) lacking the His6-Tag; His6 (N, cleaved yes); made in house; host or cells: E. coli Rosetta 2, minimal/M9 medium with 15NH4Cl
Briefly: NMR HSQC spectroscopy of labeled Shh with L2 loop peptides. It counts as binding. From the text:
Shh is in the same orientation as in the Hhip-Shh complex in Panel A. Zn^2+ and Ca^2+ cations are shown. […] Surface representation of Shh with residues within 4.5 Å of Hhip (shaded gray) and Cdon (hatched areas). Area within dotted boarder indicates the boundaries of the Cdon footprint, which overlaps the Hhip binding surface. […] Shh histidine residues are shown as sticks with nitrogen atoms shaded dark. The Hhip L2 loop is shown in transparent surface and Zn^2+ cation is shown. Histidine 35 is not shown since the ordered portion of the Shh structure begins at L40. […] The spectral region of the histidine side chains is shown. […] The average mean Shh649 fluorescence intensity (MFI) of two independent dilution series was plotted versus protein concentration, with error bars denoting standard deviations. Ctrl refers to the His-6 (SEQ ID NO: 87) tagged HGF β protein. […] Shh649 (0.33 nM) was preincubated with 56 nM (170-fold excess) of Hhipβ12 wildtype or L2 mutant proteins, 5E1 or controls then bound to Ptch1 cells (black) or 293 cells (gray), washed and analyzed by FACS. Shh649 binding to Ptch1 cells in the absence of inhibitors was normalized to 100% and the data expressed as a percentage of this signal (average of two independent duplicates with standard deviations). Ctrl and CtrlFc refer to HGF β and the IgG1 isotype control Trastuzumab, respectively. […]

Experiment [3] has as its target T3, biotinylated-ShhN-Cys (Homo sapiens, UniProt Q15465).
T3 construct: ShhN-Cys (residues 24-197); His6 (N); made in house; host or cells: E. coli Rosetta 2
In words: Bio-layer interferometry (Octet) binding kinetics of Hhip1β12 variants to Shh. Particulars: 1:1 binding model; n.d stands for no binding detected. In general terms: BLI is a label-free optical method that tracks binding on a fibre tip over time.

Experiment [4] deals with Shh signaling. Briefly: Gli-luciferase co-culture signaling assay (S12 fibroblasts overlaid with Shh-producing HT29 cells). It counts as cell-based, murine S12 fibroblasts / human HT29 cells. Conditions: Gli-luciferase co-culture, 24 hrs; read-out: IC50 inhibition of Shh signaling. The text has this: Due to the lack of both N- and C-terminal lipid modifications of Shh and the absence of other cellular components, the in vitro assays may not fully recapitulate Hip-Shh interactions occurring in a cellular environment. Therefore, a co-culture assay consisting of murine S12 fibroblasts stably transfected with a Gli luciferase reporter gene and (Frank-Kamenetsky et al. (2002) J. Biol. 1:10) and human colorectal adenocarcinoma HT29 cells that secrete fully lipid-modified Shh (Yauch et al. (2008) Nature 455:406) was used to determine which extracellular domains of Hhip1β12 mediate inhibition of Shh signaling in mammalian cells.
Briefly, S12 cells, which are 10T1/2 fibroblasts stably transfected with 8× Gli-binding sites fused to a luciferase reporter (Frank-Kamenetsky et al. (2002) J. Biol. 1:10), were plated at 10,000 cells/well of a white-walled clear bottomed 96-well plate (Costar 3610) for […] in regular growth medium (HG-DMEM, 10% FBS, 1% glutamine). After 24 h, the media was removed and Shh-producing HT29 cells at 20,000 cells/well were plated and the co-culture was grown in regular media. After 24 h, the media was changed to 0.5% serum HG-DMEM±Hhip1β12 fragments and further incubated for 24 hrs to stimulate signaling. Gli-luciferase activity was measured using a HTS-Steady Lite luciferase detection kit (Perkin Elmer); multiple assays were carried out, each in triplicate. Data were fit to a 4-parameter sigmoidal equation, from which the IC50 was derived using Kaleidagraph (Synergy Software).

Experiment [5] relates to Ptch1. Briefly: FACS assay of Shh649 binding to Ptch1 expressing 293 cells and its competition. On the set-up: species or system human. As to the method:
Shh649 (1 nM) preincubated with indicated proteins was bound to Ptch1 expressing cells, washed and analyzed by FACS. The average mean Shh649 fluorescence intensity (MFI) of two independent dilution series was plotted versus inhibitor concentration, with error bars denoting standard deviations. […] Assays were carried out using octylated Ihh wildtype and T154I proteins. Concentration dependent relative luciferase units (RLU) are plotted as the average of four independent dilution series±standard deviation and normalized to the maximal Ihh WT stimulation on each plate as 100%. […] The data is representative of three independent experiments.
Shh is in the same orientation as in the Hhip-Shh complex in Panel A. Zn^2+ and Ca^2+ cations are shown. […] Surface representation of Shh with residues within 4.5 Å of Hhip (shaded gray) and Cdon (hatched areas). Area within dotted boarder indicates the boundaries of the Cdon footprint, which overlaps the Hhip binding surface. […] Shh histidine residues are shown as sticks with nitrogen atoms shaded dark. The Hhip L2 loop is shown in transparent surface and Zn^2+ cation is shown. Histidine 35 is not shown since the ordered portion of the Shh structure begins at L40. […] The spectral region of the histidine side chains is shown. […] The average mean Shh649 fluorescence intensity (MFI) of two independent dilution series was plotted versus protein concentration, with error bars denoting standard deviations. Ctrl refers to the His-6 (SEQ ID NO: 87) tagged HGF β protein. […] Shh649 (0.33 nM) was preincubated with 56 nM (170-fold excess) of Hhipβ12 wildtype or L2 mutant proteins, 5E1 or controls then bound to Ptch1 cells (black) or 293 cells (gray), washed and analyzed by FACS. Shh649 binding to Ptch1 cells in the absence of inhibitors was normalized to 100% and the data expressed as a percentage of this signal (average of two independent duplicates with standard deviations). Ctrl and CtrlFc refer to HGF β and the IgG1 isotype control Trastuzumab, respectively. The data is representative of at least three independent experiments.
Shh649, conjugated to Dylight 649 (Pierce) at its C-terminus (vide supra), was incubated at 0.33 or 1 nM for 1 h on ice with various Hhip or control proteins prior to incubation with HEK-293 cells (293) or 293 cells expressing full length human Patched-1 (Ptch1-293 clone 10) (Carpenter D. et al. (1998) Proc. Natl. Acad. Sci. USA 95:13630-13634) in FACS buffer (3% FBS in PBS) for 1 h on ice. After washing 3 times in FACS buffer, live cells (sorted by propidium iodide exclusion) were analyzed by flow cytometry in the APC channel using a FACSCalibur (BD Biosciences). Control proteins included His6-Shh, His6-Ihh, HGF β-His639, Trastuzumab (Genentech, Inc.) as a human IgG1 isotype control for Hhip1β12-Fc, and mIgG1 (Molecular Probes Z25105) as a murine Mab control for anti-Shh 5E1 Mab34.
For orientation: A flow cytometer gives signals particle by particle.

In experiment [6] the target is T4, Shh649 binding to Hhip1β12 on 293 cells (Homo sapiens, UniProt Q15465).
T4 construct: made in house; host or cells: Shh649: E. coli Rosetta 2; Hhip1β12: Tni insect cells; both added to HEK-293 cells
Briefly: FACS: Ptch1-independent recruitment of Shh649 to 293 cells by Hhip1β12. Particulars: 520 nM. The text has this:
The critical residue for 5E1 binding, S177 shown marked with an asterisk (*), resides in the area of Shh that interacts with both Hhip and Ptch1. Numbering refers to human Shh (Fuse, N. et al. (1999) Proc. Natl. Acad. Sci. USA 96:10992-10999; Pepinsky R. B. et al. (2000) J. Biol. Chem. 275:10995-11001). […] Black bars show binding to Ptch1 cells for comparison. Data are the average mean fluorescence intensity and SDs of two independent (duplicate and triplicate) experiments normalized to Shh649 binding to Ptch1 cells in the absence of other proteins (“Ctrl”) in the same way as FIG. 15J. Shh649 and Hhip1β12 are present at 45- and 10-fold higher concentrations respectively than in FIG. 15J in order to detect the Ptch1-independent binding of Shh649 to Hhip1β12.
Shh649, conjugated to Dylight 649 (Pierce) at its C-terminus (vide supra), was incubated at 0.33 or 1 nM for 1 h on ice with various Hhip or control proteins prior to incubation with HEK-293 cells (293) or 293 cells expressing full length human Patched-1 (Ptch1-293 clone 10) (Carpenter D. et al. (1998) Proc. Natl. Acad. Sci. USA 95:13630-13634) in FACS buffer (3% FBS in PBS) for 1 h on ice. After washing 3 times in FACS buffer, live cells (sorted by propidium iodide exclusion) were analyzed by flow cytometry in the APC channel using a FACSCalibur (BD Biosciences). […]

Consider “GCQLTKQRLVDADGIINPCG (disulfide 2-19 (inferred); listed as Homo sapiens) [Ptch L2 peptide]”, for which the “competition with Hipβ1 for Shh binding (in words)” value in experiment [1] is listed as “unable to compete with Hipβ1 for Shh binding”. Moreover, in experiment [2] (peptide 2 mM, 90 μM ^15N-Shh), the “binding to Shh by ^15N, ^1H HSQC (in words)” value is on record as “binds Shh in a manner similar to that of the Hhip1β12 L2 peptide”.
With “GCGMITLDDMEEMDGLSDFCG (disulfide 2-20 (inferred); listed as Homo sapiens) [Hhip1β12 L2 peptide]”, the “displacement of Ptch1 L2-like peptide from Shh by ^13C, ^1H-HSQC” value in experiment [2] (2 mM of each peptide) is “displaces Ptch1 L2-like peptide from Shh”.

B1: Hhip1β12: β-propeller-EGF1-EGF2 construct (SEQ ID NO:12), residues 193-667 of SEQ ID NO:2, lacking putative Fz domain (protein, listed as Homo sapiens)
chain: SNYLDQMEEYDKVEEISRKHKHNCFCIQEVVSGLRQPVGALHSGDGSQRLFILEKEGYVKILTPEGEIFKEPYLDIHKLVQSGIKGGDERGLLSLAFHPNYKKNGKLYVSYTTNQERWAIGPHDHILRVVEYTVSRKNPHQVDLRTARVFLEVAELHRKHLGGQLLFGPDGFLYIILGDGMITLDDMEEMDGLSDFTGSVLRLDVDTDMCNVPYSIPRSNPHFNSTNQPPEVFAHGLHDPGRCAVDRHPTDININLTILCSDSNGKNRSSARILQIIKGKDYESEPSLLEFKPFSNGPLVGGFVYRGCQSERLYGSYVFGDRNGNFLTLQQSPVTKQWQEKPLCLGTSGSCRGYFSGHILGFGEDELGEVYILSSSKSMTQTHNGKLYKIVDPKRPLMPEECRATVQPAQTLTSECSRLCRNGYCTPTGKCCCSPGWEGDFCRTAKCEPACRHGGVCVRPNKCLCKKGYLGPQCE
What is called Kd is the concentration at which binding is half-saturated. Read a high Kd as weaker binding. In general, IC50 refers to the concentration that inhibits the measured activity by half. Consider B1, for which, in experiment [3], the Kd amounted to 220 nM, the “koff × 10^−4” value was 9.4 × 10^−4 [s^−1] and the “kon × 10^3” value is 4.3 × 10^3 [M^−1 × s^−1]. Moreover, in experiment [4], the IC50 amounted to 5 nM. In addition, in experiment [5], the “competition of Shh649 binding to Ptch1 cells (in words)” value was “inhibit Ptch1-specific Shh cell binding in a dose-dependent manner”. Besides, the “binding to 293 cells at high concentrations” value in experiment [6] is given as “bind nonspecifically to 293 cells”.
